Assay results from article PMC8897262 (Journal of molecular biology, 2021).

Legend:
[1] = biological target: T1, CD99 peptide containing the 10A1 epitope, Ac-GENDDPRPPNPPKPM-amide (human); assay: crystal structure
T1 chain: Ac-GENDDPRPPNPPKPM-NH2

[2] = biological target: T2, CD99, endogenously expressed on T-ALL cells (Jurkat, KOPT-K1) (human (endogenous in Jurkat and KOPT-K1)) (UniProt P14209)
T2 sequence (chain, O-linked glycosylation): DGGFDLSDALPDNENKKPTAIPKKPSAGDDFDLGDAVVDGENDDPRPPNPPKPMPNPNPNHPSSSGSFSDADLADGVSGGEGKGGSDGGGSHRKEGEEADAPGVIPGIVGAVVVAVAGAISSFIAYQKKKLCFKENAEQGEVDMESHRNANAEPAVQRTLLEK

B1: 10A1 Fab (Fab, V domains shown)
VH: QVQLQQSGPVLVKPSQTLSLTCAISGDSISSDTTAWSWIRRSPSRGLEWLGWTYYRSKWFNYYAVSVKGRVTINPDTSKNQFSLQLSSVTPEDTAVYYCARGNGNGGMDVWGQGTTVTVSS
VL: SYVLTQPASASVSPGQTARITCSGDALPKQYAYWYQQKPGQAPVLVIFKDSERPSGVPERFSGSSSGTTVTLTISGAQAEDEADYYCQSVDNSGFYQVFGGGTQLTVL
Q: Does B1 bind [1]?
A: binds

Q: And the IC50 (nM Fv) of cytotoxicity, Annexin V staining of KOPT-K1 cells after 18 h [2]?
A: > 2000 nM Fv
